Measured values as given in the supplement of paper PMC10567573.
± gives the standard deviation.

Experiment: protein stability index of a GFP-peptide fusion (GPS, HEK-293T) (PSI 1-6); higher = more stable
[1] = treatment: DMSO, c terminus: a fixed tail appended
[2] = treatment: MLN4924 1 uM, 8 h, c terminus: a fixed tail appended
[3] = treatment: DMSO, c terminus: native
[4] = treatment: MLN4924 1 uM, 8 h, c terminus: native
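Further: 24-mer peptide tiles fused after GFP, lentivirally expressed, FACS-sorted into six equal bins by GFP/DsRed ratio, decoded by Illumina sequencing, PSI is the read-weighted mean bin number.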

| Sequence | protein stability index [1] | protein stability index [2] | protein stability index [3] | protein stability index [4] |
| --- | --- | --- | --- | --- |
| FFCEGVKIIFRVGLVLLKHALGSP [TBC1D10A] | 1.98 ± 0.54 | 2.11 ± 0.36 | – | – |
| NNQEEETEFKELDGLREALANLRG [CCDC89] | 4.71 ± 0.29 | 4.58 ± 0.4 | – | – |
| QLGQRIYQYIQSRFYRSPEVLLGT [DYRK1B] | 2.23 ± 0.16 | 2.53 ± 0.44 | – | – |
| GLAKCNGLSHSHDLSMDGLFGTIA [RIPK4] | 2.47 ± 0.43 | 2.38 ± 0.13 | – | – |
| VVLDMEEGTLGYAIGGTYLGPAFR [SPSB2] | 2.37 ± 0.24 | 2.19 ± 0.074 | – | – |
| HKQLLLFHNAVSAYFAGNQKQLEQ [ARFIP2] | 2.19 ± 0.45 | 2.17 ± 0.18 | – | – |
| RELLMNHRRGLGVDSKPELQRVLE [FAM107A] | 3.95 ± 0.18 | 4.09 ± 0.14 | – | – |
| VCMDLRANLKQVKKEDTEKERDLR [TNNI2] | 4.71 ± 0.18 | 4.77 ± 0.4 | – | – |
| ELEGLIADPDEMRMQALLIRERIL [FEM1C] | 2.54 ± 0.48 | 2.65 ± 0.43 | – | – |
| LPIVKLLAKQPGVSVNAQTLDGRT [RIPK4] | 2.71 ± 0.17 | 3.13 ± 0.56 | – | – |
| GGIRGRAMALTSSMNWGINLLISL [SLC2A12] | 2.26 ± 0.7 | 2.54 ± 0.42 | – | – |
| LLQSFHGHGADVLCLDLAPSETGN [GNB5] | 3.23 ± 0.3 | 3.39 ± 0.14 | – | – |
| PMDVYETGIEYIVAQGPTNQGLNV [ADAMTSL2] | 3.19 ± 0.68 | 3.54 ± 0.39 | – | – |
| CSQHWGGMASFRFPETTFISVTAY [TBX6] | 3.18 ± 0.6 | 2.85 ± 0.47 | – | – |
| SSDKVRGIETLESVPIIGGFWETI [PHTF1] | 2.56 ± 0.32 | 2.65 ± 0.31 | – | – |
| LRAVEQAMGHSQDRLTTFQENQAR [LRRC45] | 4.48 ± 0.23 | 4.34 ± 0.22 | – | – |
| EDRVKLFGIEIEVTDINDNAPKFQ [PCDHGA10] | 3.35 ± 0.43 | 3.52 ± 0.46 | – | – |
| APNSLSAPTMLHNSSGDFSQAHST [TRAF3IP2] | 4.84 ± 0.14 | 4.78 ± 0.28 | – | – |
| ISVTAYQNPQITQLKIAANPFAKG [TBX6] | 2.33 ± 0.22 | 2.36 ± 0.16 | – | – |
| RPSQYRPDGLRSGDGVPPRSLQDG [LCOR] | 4.83 ± 0.091 | 4.85 ± 0.17 | – | – |
| INRWRFLLQCLEDLDANLRKLNSR [CRY1] | 2.06 ± 0.16 | 2.45 ± 0.15 | – | – |
| FWHDTLTEQLWRIFAGVHDEKAKP [TLE6] | 2.23 ± 0.41 | 2.41 ± 0.76 | – | – |
| YMIHEPEPHILLFRRPLPKKPKK [CKS1B] | – | – | 2.55 ± 0.23 | 2.99 ± 0.5 |

| Sequence | protein stability index [1] | protein stability index [2] | protein stability index [3] | protein stability index [4] |
| --- | --- | --- | --- | --- |
| LSPKIMQEAFLVQEVVELPVTERQ [TBC1D10A] | 3.98 ± 0.19 | 3.91 ± 0.39 | – | – |
| VDDHTPWVKGSVPPPLDQYVKFDA [CLPTM1] | 3.99 ± 0.15 | 3.74 ± 0.24 | – | – |
| ENGYGFHLNAIRGLPGSFIKEVQK [PDZK1] | 2.62 ± 0.18 | 2.97 ± 0.43 | – | – |
| RGFAFVTFESPADAKDAARDMNGK [RBMX] | 4.12 ± 0.16 | 4.19 ± 0.26 | – | – |
| QLAAGRHGDDLKNTKNEISELTRL [KRT71] | 4.58 ± 0.32 | 4.52 ± 0.15 | – | – |
| SSAVYFAEADEPTTHFQSIPDAFW [KCNA4] | 2.54 ± 0.16 | 2.67 ± 0.33 | – | – |
| LRSAGVEQLMYIKEDLIIPHHHSF [FAM50A] | 2.38 ± 0.35 | 2.37 ± 0.25 | – | – |
| QENQARTHVLSKEVQHLREEKSKQ [LRRC45] | 5.2 ± 0.29 | 5.36 ± 0.29 | – | – |
| STPLTATPGGRGDMKYGIYAVENE [VTI1B] | 4.53 ± 0.19 | 4.42 ± 0.22 | – | – |
| MKNEKLLSKASEPKYQLFVPQLVT [RNF180] | 2.69 ± 0.3 | 2.82 ± 0.24 | – | – |
| GPESPPPPYSRLSPRDEYKPLDLS [SMAD6] | 4.67 ± 0.15 | 4.78 ± 0.2 | – | – |
| GDEFSLREHELLCRADHGLLLERA [ISL2] | 4.06 ± 0.49 | 3.65 ± 0.35 | – | – |
| VPFDIFTEEVKFYQLGEEALLKFR [KCNA4] | 2.32 ± 0.36 | 2.54 ± 0.19 | – | – |
| QEDITKSLLVTELGSSRTPETVRM [IMPA1] | 4.58 ± 0.12 | 4.49 ± 0.34 | – | – |
| ICNNKWFTDTSIILFLNKKDLFEE [GNAI1] | 3.06 ± 0.97 | 2.83 ± 0.45 | – | – |
| EVDAAPPVDLNKILEDMRCQYEAL [KRT36] | 4.59 ± 0.13 | 4.68 ± 0.096 | – | – |
| MLGFRPYRFYFYMWKFVSPLCMAV [SLC6A17] | 2.27 ± 0.25 | 2.29 ± 0.68 | – | – |
| VQAPSYGARPVSSAASVYAGAGGS [KRT18] | 3.91 ± 0.081 | 3.82 ± 0.69 | – | – |
| DEEERRRRVFDVPIRRRRCSRLF [FBXO3] | – | – | 3.32 ± 0.61 | 3.73 ± 0.82 |
| EGLRELQRSRRLCHEDVEALAAIY [DAPK3] | 2.72 ± 0.74 | – | – | – |
| TLSFIVDGQYLGVAFRGLKGKKLY [SPSB4] | 2.16 ± 0.41 | 2.31 ± 0.31 | – | – |
| CQRERAFSVKFEVQAPRWGNPRAL [OAS1] | 2.46 ± 0.12 | 2.8 ± 0.27 | – | – |
